PMC6555819, “Comprehensive study of nuclear receptor DNA binding provides a revised framework for understanding receptor specificity”

Legend:
LXRa:RXRa = LXRa:RXRa (Homo sapiens, UniProt Q13133;P19793 full;full); assay: no ligand; PBM; 270 nM : 90 nM RXRa; PBS pH 7.4, 2% milk, 0.02% Triton X-100, 1 mM DTT, BSA, 0.4 mg/ml salmon testes DNA; details: tags: His kept;His cleaved; copies: 1;1; label: surface-attached array probe
Outline: (§1)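 The probes on custom Agilent 4×180K protein-binding microarrays were double-stranded, with 34-nt variable regions bearing direct-repeat seeds, single-nucleotide variants, half-site ablations and random human genomic background sequences. Incubation lasted 1 h with ligand-free nuclear receptor dimers in PBS pH 7.4, 2% milk, 0.02% Triton X-100, 1 mM DTT, 0.2 mg/mL BSA and 0.4 mg/ml salmon testes DNA. Antibodies against each partner (one per run) detected bound dimers, and fluorescence scans were regression-normalized. Binding z-scores take the random background probes as reference.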

PXR:RXRa = PXR:RXRa (Homo sapiens, UniProt O75469;P19793 full;full); assay: as above; details: tags: His kept;His cleaved; copies: 1;1; label: surface-attached array probe
PXR:RXRa, sequence (O75469 whole entry, chain 1 of 2): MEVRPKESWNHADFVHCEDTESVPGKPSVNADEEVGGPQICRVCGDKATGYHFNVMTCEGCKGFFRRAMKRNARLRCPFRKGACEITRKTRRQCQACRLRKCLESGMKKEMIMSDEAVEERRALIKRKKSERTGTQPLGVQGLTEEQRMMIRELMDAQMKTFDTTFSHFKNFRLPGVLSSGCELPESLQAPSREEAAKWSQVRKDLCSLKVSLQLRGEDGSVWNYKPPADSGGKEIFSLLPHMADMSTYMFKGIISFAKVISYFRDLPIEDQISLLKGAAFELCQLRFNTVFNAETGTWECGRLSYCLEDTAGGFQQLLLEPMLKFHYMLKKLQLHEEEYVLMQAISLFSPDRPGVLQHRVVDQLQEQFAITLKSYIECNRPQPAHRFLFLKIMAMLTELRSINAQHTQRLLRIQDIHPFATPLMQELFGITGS
PXR:RXRa, sequence (P19793 whole entry, chain 2 of 2): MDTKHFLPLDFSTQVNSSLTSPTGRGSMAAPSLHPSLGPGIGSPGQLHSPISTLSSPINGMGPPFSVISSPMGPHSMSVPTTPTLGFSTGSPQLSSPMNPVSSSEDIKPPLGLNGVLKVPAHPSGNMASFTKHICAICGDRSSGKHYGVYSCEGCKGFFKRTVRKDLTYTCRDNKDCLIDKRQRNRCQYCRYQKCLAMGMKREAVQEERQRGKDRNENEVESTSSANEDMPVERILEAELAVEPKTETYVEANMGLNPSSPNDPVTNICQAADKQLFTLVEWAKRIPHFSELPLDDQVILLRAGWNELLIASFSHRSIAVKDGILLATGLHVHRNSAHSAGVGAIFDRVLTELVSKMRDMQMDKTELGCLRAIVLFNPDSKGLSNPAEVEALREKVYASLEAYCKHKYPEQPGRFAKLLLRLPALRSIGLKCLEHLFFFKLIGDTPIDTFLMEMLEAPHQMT
Outline: as §1

RXRa = RXRa (Homo sapiens, UniProt P19793); assay: no ligand; PBM; 180 nM; PBS pH 7.4, 2% milk, 0.02% Triton X-100, 1 mM DTT, BSA, 0.4 mg/ml salmon testes DNA; details: tags: His cleaved; chain copies: 2; label: surface-attached array probe
RXRa, sequence (P19793 whole entry): as the sequence (P19793 whole entry, chain 2 of 2) above
LXRb:RXRa = LXRb:RXRa (Homo sapiens, UniProt P55055;P19793 full;full); assay: no ligand; PBM; 270 nM : 90 nM RXRa; PBS pH 7.4, 2% milk, 0.02% Triton X-100, 1 mM DTT, BSA, 0.4 mg/ml salmon testes DNA; details: tags: His kept;His cleaved; copies: 1;1; label: surface-attached array probe
LXRb:RXRa, sequence (P55055 whole entry, chain 1 of 2): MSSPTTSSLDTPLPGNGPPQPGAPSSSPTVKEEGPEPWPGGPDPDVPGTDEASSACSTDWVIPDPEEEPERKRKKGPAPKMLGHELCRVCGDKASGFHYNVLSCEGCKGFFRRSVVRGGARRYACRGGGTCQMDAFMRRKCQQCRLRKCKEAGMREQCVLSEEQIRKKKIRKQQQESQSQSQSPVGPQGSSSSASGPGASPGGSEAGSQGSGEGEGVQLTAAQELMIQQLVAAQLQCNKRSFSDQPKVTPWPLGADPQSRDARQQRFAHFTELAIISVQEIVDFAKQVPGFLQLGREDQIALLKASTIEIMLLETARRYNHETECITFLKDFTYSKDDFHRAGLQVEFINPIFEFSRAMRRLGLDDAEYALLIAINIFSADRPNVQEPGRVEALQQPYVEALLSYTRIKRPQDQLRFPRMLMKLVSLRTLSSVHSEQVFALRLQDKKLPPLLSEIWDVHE
LXRb:RXRa, sequence (P19793 whole entry, chain 2 of 2): as the sequence (P19793 whole entry, chain 2 of 2) above
Outline: as §1

VDR:RXRa = VDR:RXRa (Homo sapiens, UniProt P11473;P19793 full;full); assay: as above; details: tags: His kept;His cleaved; copies: 1;1; label: surface-attached array probe
VDR:RXRa, sequence (P11473 whole entry, chain 1 of 2): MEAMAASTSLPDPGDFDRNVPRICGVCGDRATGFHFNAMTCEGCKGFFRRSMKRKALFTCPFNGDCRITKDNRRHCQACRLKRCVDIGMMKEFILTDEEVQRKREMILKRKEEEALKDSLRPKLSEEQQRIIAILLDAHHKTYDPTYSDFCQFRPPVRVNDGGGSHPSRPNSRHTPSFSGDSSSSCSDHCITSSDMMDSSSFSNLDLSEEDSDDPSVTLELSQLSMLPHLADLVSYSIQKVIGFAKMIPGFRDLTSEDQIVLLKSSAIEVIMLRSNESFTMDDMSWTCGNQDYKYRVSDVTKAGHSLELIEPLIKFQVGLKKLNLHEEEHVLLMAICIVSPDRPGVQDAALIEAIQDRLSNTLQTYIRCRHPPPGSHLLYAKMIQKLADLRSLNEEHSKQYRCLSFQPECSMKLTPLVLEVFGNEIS
VDR:RXRa, sequence (P19793 whole entry, chain 2 of 2): as the sequence (P19793 whole entry, chain 2 of 2) above
Outline: as §1

RARb:RXRa = RARb:RXRa (Homo sapiens, UniProt P10826;P19793 full;full); assay: as above; details: tags: His kept;His cleaved; copies: 1;1; label: surface-attached array probe
RARb:RXRa, sequence (P10826 whole entry, chain 1 of 2): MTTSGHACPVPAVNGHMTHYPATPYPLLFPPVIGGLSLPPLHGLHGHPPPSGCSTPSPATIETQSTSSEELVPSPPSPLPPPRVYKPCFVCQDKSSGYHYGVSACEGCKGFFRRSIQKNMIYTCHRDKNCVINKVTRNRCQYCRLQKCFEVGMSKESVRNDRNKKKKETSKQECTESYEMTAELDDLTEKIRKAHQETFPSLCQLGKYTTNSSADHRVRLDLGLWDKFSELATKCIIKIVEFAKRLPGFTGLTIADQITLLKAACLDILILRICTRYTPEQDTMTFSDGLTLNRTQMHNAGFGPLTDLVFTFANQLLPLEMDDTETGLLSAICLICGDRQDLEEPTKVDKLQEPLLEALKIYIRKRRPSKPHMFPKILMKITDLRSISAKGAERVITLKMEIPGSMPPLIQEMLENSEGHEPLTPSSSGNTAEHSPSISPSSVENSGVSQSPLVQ
RARb:RXRa, sequence (P19793 whole entry, chain 2 of 2): as the sequence (P19793 whole entry, chain 2 of 2) above
Outline: as §1

RARg:RXRa = RARg:RXRa (Homo sapiens, UniProt P13631;P19793 full;full); assay: as above; details: tags: His kept;His cleaved; copies: 1;1; label: surface-attached array probe
RARg:RXRa, sequence (P13631 whole entry, chain 1 of 2): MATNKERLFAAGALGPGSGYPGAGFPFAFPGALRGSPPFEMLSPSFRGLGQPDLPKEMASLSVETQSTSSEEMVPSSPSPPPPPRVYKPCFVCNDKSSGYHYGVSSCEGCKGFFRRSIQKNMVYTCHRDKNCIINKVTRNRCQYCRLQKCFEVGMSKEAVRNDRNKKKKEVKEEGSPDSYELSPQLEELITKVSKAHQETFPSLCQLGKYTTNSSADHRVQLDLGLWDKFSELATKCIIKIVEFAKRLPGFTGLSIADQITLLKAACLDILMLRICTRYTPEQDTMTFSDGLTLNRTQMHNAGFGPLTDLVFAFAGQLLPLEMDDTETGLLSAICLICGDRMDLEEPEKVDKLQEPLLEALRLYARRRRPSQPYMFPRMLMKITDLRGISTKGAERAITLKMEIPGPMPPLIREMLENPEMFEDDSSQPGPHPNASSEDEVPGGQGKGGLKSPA
RARg:RXRa, sequence (P19793 whole entry, chain 2 of 2): as the sequence (P19793 whole entry, chain 2 of 2) above
Outline: as §1

FXR:RXRa = FXR:RXRa (Homo sapiens, UniProt Q96RI1;P19793 full;full); assay: as above; details: tags: His kept;His cleaved; copies: 1;1; label: surface-attached array probe
FXR:RXRa, sequence (Q96RI1 whole entry, chain 1 of 2): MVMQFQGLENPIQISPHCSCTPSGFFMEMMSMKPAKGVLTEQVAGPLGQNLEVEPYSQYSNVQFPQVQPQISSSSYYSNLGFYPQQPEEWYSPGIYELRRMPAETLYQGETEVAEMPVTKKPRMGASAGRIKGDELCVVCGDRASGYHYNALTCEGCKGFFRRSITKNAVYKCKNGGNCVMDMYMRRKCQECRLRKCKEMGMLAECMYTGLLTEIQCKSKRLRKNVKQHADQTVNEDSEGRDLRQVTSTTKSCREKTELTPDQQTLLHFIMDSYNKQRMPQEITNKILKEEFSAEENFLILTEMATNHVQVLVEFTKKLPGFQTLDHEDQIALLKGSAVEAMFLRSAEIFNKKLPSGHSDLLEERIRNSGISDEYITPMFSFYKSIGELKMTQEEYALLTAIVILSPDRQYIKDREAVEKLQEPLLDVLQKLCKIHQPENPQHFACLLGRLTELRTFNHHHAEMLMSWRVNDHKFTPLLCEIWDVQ
FXR:RXRa, sequence (P19793 whole entry, chain 2 of 2): as the sequence (P19793 whole entry, chain 2 of 2) above
Outline: as §1

LXRa:RXRa, sequence (Q13133 whole entry, chain 1 of 2): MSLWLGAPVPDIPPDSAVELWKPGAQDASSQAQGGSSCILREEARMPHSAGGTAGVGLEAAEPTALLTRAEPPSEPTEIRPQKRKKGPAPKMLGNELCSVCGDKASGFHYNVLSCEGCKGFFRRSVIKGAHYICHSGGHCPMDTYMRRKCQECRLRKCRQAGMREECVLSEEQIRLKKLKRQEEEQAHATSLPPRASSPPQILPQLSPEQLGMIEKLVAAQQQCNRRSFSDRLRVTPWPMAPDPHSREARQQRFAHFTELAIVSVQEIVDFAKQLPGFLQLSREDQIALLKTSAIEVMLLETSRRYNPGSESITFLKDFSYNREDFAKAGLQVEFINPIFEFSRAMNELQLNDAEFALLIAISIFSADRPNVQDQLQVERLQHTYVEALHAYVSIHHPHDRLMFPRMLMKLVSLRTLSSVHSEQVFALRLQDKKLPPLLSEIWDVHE
LXRa:RXRa, sequence (P19793 whole entry, chain 2 of 2): as the sequence (P19793 whole entry, chain 2 of 2) above

B1: NRC3_wobSeed124_DR5_T23G_o1 (dsDNA)
DNA 1: GCCCTACTGGGCCATTCAGAGGGCATTGATCATATGGCGATTGACAGCGTAGAATGAAGG
DNA 2: CCTTCATTCTACGCTGTCAATCGCCATATGATCAATGCCCTCTGAATGGCCCAGTAGGGC
Question: Which binding signal (LXRa:RXRa) does the source give for B1 here?
Answer: -0.01 PBM z-score against 500 random probes

Question: What about the binding signal (PXR:RXRa) of the same binder?
Answer: 0.42 PBM z-score against 500 random probes

B2: NRC3_random_hg19_277_o1 (dsDNA)
DNA 1: GCGGTGGCACACGCATGGAATCCCAGCGCTTTGGGAGCGATTGACAGCGTAGAATGAAGG
DNA 2: CCTTCATTCTACGCTGTCAATCGCTCCCAAAGCGCTGGGATTCCATGCGTGTGCCACCGC
Question: What does the source list for B2?
Answer: binding signal (RXRa): -0.54 PBM z-score against 500 random probes; binding signal (LXRa:RXRa): -0.75 PBM z-score against 500 random probes; binding signal (PXR:RXRa): -0.74 PBM z-score against 500 random probes

B3: NRC3_random_hg19_28_o1 (dsDNA)
DNA 1: GCCATCTAAAGCCTTGACAGGCTGGGATAGCTGCTTGCGATTGACAGCGTAGAATGAAGG
DNA 2: CCTTCATTCTACGCTGTCAATCGCAAGCAGCTATCCCAGCCTGTCAAGGCTTTAGATGGC
Question: What does the source list for B3?
Answer: binding signal (LXRb:RXRa): -1 PBM z-score against 500 random probes; binding signal (PXR:RXRa): -0.65 PBM z-score against 500 random probes

B4: NRC3_wobSeed89_DR3_G16C_o1 (dsDNA)
DNA 1: GCCTATGTAGGTTAACGGGGTCATTCAGTTTGAAAGGCGATTGACAGCGTAGAATGAAGG
DNA 2: CCTTCATTCTACGCTGTCAATCGCCTTTCAAACTGAATGACCCCGTTAACCTACATAGGC
Question: What does the source list for B4?
Answer: binding signal (VDR:RXRa): 8.07 PBM z-score against 500 random probes; binding signal (PXR:RXRa): 6.67 PBM z-score against 500 random probes

B5: NRC3_wobSeed85_DR3_G24C_o1 (dsDNA)
DNA 1: GCCGTCCAAGGTCAGAGAGGTCACTGAATGCCGAGTGCGATTGACAGCGTAGAATGAAGG
DNA 2: CCTTCATTCTACGCTGTCAATCGCACTCGGCATTCAGTGACCTCTCTGACCTTGGACGGC
Question: B5 was tested. Which binding signal (VDR:RXRa) did it give?
Answer: 7.9 PBM z-score against 500 random probes

Question: And the binding signal (PXR:RXRa)?
Answer: 6.76 PBM z-score against 500 random probes

B6: NRC3_random_hg19_273_o1 (dsDNA)
DNA 1: GCTGCAGGGTTTCTACCGAGAAGTCTGCTGTTAGTCGCGATTGACAGCGTAGAATGAAGG
DNA 2: CCTTCATTCTACGCTGTCAATCGCGACTAACAGCAGACTTCTCGGTAGAAACCCTGCAGC
Question: How did the binding signal (RARb:RXRa) turn out when B6 was run?
Answer: -0.17 PBM z-score against 500 random probes

Question: What about the binding signal (LXRb:RXRa) of the same binder?
Answer: -0.41 PBM z-score against 500 random probes

Question: What about the binding signal (PXR:RXRa) of the same binder?
Answer: -0.66 PBM z-score against 500 random probes

Question: And the binding signal (RARg:RXRa)?
Answer: -0.66 PBM z-score against 500 random probes

B7: NRC3_wobSeed13_DR0_A14T_o1 (dsDNA)
DNA 1: GCCGTCCAAGGTCTAGGTCAGTGAAAGAGACTCGAAGCGATTGACAGCGTAGAATGAAGG
DNA 2: CCTTCATTCTACGCTGTCAATCGCTTCGAGTCTCTTTCACTGACCTAGACCTTGGACGGC
Question: For B7, which binding signal (LXRb:RXRa) is on record?
Answer: 0.12 PBM z-score against 500 random probes

Question: And the binding signal (PXR:RXRa)?
Answer: 0.19 PBM z-score against 500 random probes

B8: NRC3_wobSeed121_DR5_A19G_o1 (dsDNA)
DNA 1: GCCAAACTAGGTCACCGGGAGGTCAAAGTCCGCATGGCGATTGACAGCGTAGAATGAAGG
DNA 2: CCTTCATTCTACGCTGTCAATCGCCATGCGGACTTTGACCTCCCGGTGACCTAGTTTGGC
Question: With B8 as the binder, how does the binding signal (VDR:RXRa) read?
Answer: 6.81 PBM z-score against 500 random probes

Question: And the binding signal (PXR:RXRa)?
Answer: 6.61 PBM z-score against 500 random probes

B9: NRC3_random_hg19_198_o1 (dsDNA)
DNA 1: GCAGTTATGTCCACTTGCATAAGTGCAACGTTTGGCGCGATTGACAGCGTAGAATGAAGG
DNA 2: CCTTCATTCTACGCTGTCAATCGCGCCAAACGTTGCACTTATGCAAGTGGACATAACTGC
Question: What does the source list for B9?
Answer: binding signal (LXRa:RXRa): -0.41 PBM z-score against 500 random probes; binding signal (FXR:RXRa): -0.27 PBM z-score against 500 random probes; binding signal (PXR:RXRa): 0.06 PBM z-score against 500 random probes

B10: NRC3_wobSeed137_DR5_C19G_o1 (dsDNA)
DNA 1: GCATATGTAGGTTACATCGGGGTCATTCAGGCTATGGCGATTGACAGCGTAGAATGAAGG
DNA 2: CCTTCATTCTACGCTGTCAATCGCCATAGCCTGAATGACCCCGATGTAACCTACATATGC
Question: Which binding signal (VDR:RXRa) does the source give for B10 here?
Answer: 6.54 PBM z-score against 500 random probes

Question: And the binding signal (PXR:RXRa)?
Answer: 6.55 PBM z-score against 500 random probes

B11: NRC3_random_hg19_142_o1 (dsDNA)
DNA 1: GCGGTACTCAGTATGTGAAGAATCATGTTGAGGCAGGCGATTGACAGCGTAGAATGAAGG
DNA 2: CCTTCATTCTACGCTGTCAATCGCCTGCCTCAACATGATTCTTCACATACTGAGTACCGC
Question: For B11, which binding signal (LXRa:RXRa) is on record?
Answer: 0.28 PBM z-score against 500 random probes

Question: What about the binding signal (PXR:RXRa) of the same binder?
Answer: 0.04 PBM z-score against 500 random probes
